Experimental findings from PMC5634487, “Structural basis for IL-1α recognition by a modified DNA aptamer that specifically inhibits IL-1α signaling” (Nature Communications, 2017) are described below.

The target of the test is T1, human IL-1α, biotinylated (human, UniProt P01583 113-271, biotin (EZ-Link NHS-Peg4-Biotin, 10-fold molar excess; sites not stated)).
T1 construct: interleukin-1 alpha (IL1A), human; crystallised); If it was the ProSpec protein, it may carry a His tag (surmised from the Talon beads); also called IL-1a; IL1F1; source: purified IL-1α protein, biotinylated with EZ-Link NHS-Peg4-Biotin
T1 sequence (looked up): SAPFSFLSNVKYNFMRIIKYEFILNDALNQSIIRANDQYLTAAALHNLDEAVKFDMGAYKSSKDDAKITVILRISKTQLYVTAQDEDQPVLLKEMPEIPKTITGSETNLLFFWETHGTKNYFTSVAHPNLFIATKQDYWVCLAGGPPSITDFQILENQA
The experiment in a line: radioligand binding; competition: 32P-labelled aptamer SL1067 (~30 pM) and unlabelled receptor (10^-6 to 10^-11 M) with biotinylated IL-1α (2 nM) in SB18T buffer (40 mM HEPES pH 7.5, 102 mM NaCl, 5 mM KCl, 5 mM MgCl2, 0.01% Tween-20), 37 °C, 60 min; complexes captured on MyOne streptavidin resin and Durapore filter plates; one-site competition model. The note with it: both partners purified.

B1: recombinant IL-1RII, extracellular domain (receptor, UniProt P27930 14-343, looked up)
chain: FTLQPAAHTGAARSCRFRGRHYKREFRLEGEPVALRCPQVPYWLWASVSPRINLTWHKNDSARTVPGEEETRMWAQDGALWLLPALQEDSGTYVCTTRNASYCDKMSIELRVFENTDAFLPFISYPQILTLSTSGVLVCPDLSEFTRDKTDVKIQWYKDSLLLDKDNEKFLSVRGTTHLLVHDVALEDAGYYRCVLTFAHEGQQYNITRSIELRIKKKKEETIPVIISPLKTISASLGSRLTIPCKVFLGTGTPLTTMLWWTANDTHIESAYPGGRVTEGPRQEYSENNENYIEVPLIFDPVTREDLHMDFKCVVHNTLSFQTLRTTVKE
notes: interleukin-1 receptor type 2, extracellular domain; also called IL-1RI1 (as printed in the methods); source: bought: R&D Systems
In general, Ki refers to the dissociation constant of the complex between target and ligand, obtained from inhibition or displacement. The molecule B1 returned a Ki of 290 nM.

B2: recombinant IL-1RI, extracellular domain (receptor, UniProt P14778 18-336, looked up)
chain: LEADKCKEREEKIILVSSANEIDVRPCPLNPNEHKGTITWYKDDSKTPVSTEQASRIHQHKEKLWFVPAKVEDSGHYYCVVRNSSYCLRIKISAKFVENEPNLCYNAQAIFKQKLPVAGDGGLVCPYMEFFKNENNELPKLQWYKDCKPLLLDNIHFSGVKDRLIVMNVAEKHRGNYTCHASYTYLGKQYPITRVIEFITLEENKPTRPVIVSPANETMEVDLGSQIQLICNVTGQLSDIAYWKWNGSVIDEDDPVLGEDYYSVENPANKRRSTLITVLNISEIESRFYKHPFTCFAKNTHGIDAAYIQLIYPVTNFQK
notes: interleukin-1 receptor type 1, extracellular domain; also called IL-1R1; IL-1 receptor; source: bought: R&D Systems
For the molecule B2, the Ki turned out to be 21 nM.
